The values that follow come from publication PMC6356061.

Assay [1] concerns the target NMDA receptor GluN1 subunit (mouse (endogenous in primary cortical neurons)) (UniProt P35438).
The target is the same in assay [2]. The assay can be described thus: co-IP; extracts of neurons exposed 10 min to 14.4 nM biotinylated Fib-Tau; immunoprecipitation with anti-α3-NKA, anti-GluA2 or anti-GluN1 and protein G magnetic beads, 4°C; Fib-Tau detected on slot blot with streptavidin-HRP; controls with pre-immune goat or rabbit IgG.

“Biotin-labelled fibrillar Tau-1N3R (Fib-Tau-1N3R) (from UniProt P10636-4 1-381) (natural protein)”: the change in the amount (fluorescence intensity) of synaptic GluN1-NMDA after exposure of neurons to Fib-Tau (0.36 nM, 60 min); no change in assay [1] is -3.2%. Moreover, in assay [2], the fold enrichment in Tau band intensity over pre-immune IgG control is 1.8 fold.
